# Target: VAP-A (VAMP-associated protein A) (UniProt Q9P0L0)
# Assay: anti-GFP co-IP after DSP crosslinking, VAP-A blot
# Conditions: reference: WT, sorbitol-treated; sites S315
substance,measurement,value
"CERT (ceramide transport protein) (from UniProt Q9Y5P4) S315A, sorbitol-treated",binding against the reference,weaker

# — article PMC8999913
